# According to US20170015742A1 (published 2017):
# Residue numbers refer to the chain shown, from its start.
# B1: CL-34565_GS_9E8.4 (PR-1613184) (bispecific antibody, human IgG1, kappa, L234A L235A)
# heavy: EVQLVQSGSELKKPGASVKVSCKASGYTFTDYGMYWVRQAPGQGLEWMGWIDTETGDPTYADDFKGRFVFSLDTSVSTAYLQISSLKAEDTAVYYCARTNYYYRNYMFYFDYWGQGTMVTVSSGGGGSGGGGSEVTLRESGPALVKPTQTLTLTCTFSGFSLSTYGMGVGWIRQPPGKALEWLANIWWDDDKYYNPSLKNRLTISKDTSKNQVVLTMTNMDPVDTATYYCARIESIGTTYSFDYWGQGTMVTVSSASTKGPSVFPLAPSSKSTSGGTAALGCLVKDYFPEPVTVSWNSGALTSGVHTFPAVLQSSGLYSLSSVVTVPSSSLGTQTYICNVNHKPSNTKVDKKVEPKSCDKTHTCPPCPAPEAAGGPSVFLFPPKPKDTLMISRTPEVTCVVVDVSHEDPEVKFNWYVDGVEVHNAKTKPREEQYNSTYRVVSVLTVLHQDWLNGKEYKCKVSNKALPAPIEKTISKAKGQPREPQVYTLPPSREEMTKNQVSLTCLVKGFYPSDIAVEWESNGQPENNYKTTPPVLDSDGSFFLYSKLTVDKSRWQQGNVFSCSVMHEALHNAYTQKSLSLSPGK
# light: EIVLTQSPATLSLSPGERATLFCRASQSVSNHMHWYQQKPGQAPRLLIYGASILESGVPARFSGSGSGTDFTLTISSLEPEDFAVYYCQQSWYDPITFGQGTKLEIKGGSGGGGSGGEFVLTQSPGTLSLSPGERATLSCERSSGDIGDSYVSWYQQKPGQAPRLVIYADDQRPSGIPDRFSGSGSGTDFTLTISRLEPEDFAVYYCQSYDINIDIVFGGGTKVEIKRTVAAPSVFIFPPSDEQLKSGTASVVCLLNNFYPREAKVQWKVDNALQSGNSQESVTEQDSKDSTYSLSSTLTLSKADYEKHKVYACEVTHQGLSSPVTKSFNRGEC
# B2: CL-34565_GS_3E2.1 (PR-1613185) (bispecific antibody, human IgG1, kappa, L234A L235A)
# heavy: EVQLVQSGSELKKPGASVKVSCKASGYTFTDYGMYWVRQAPGQGLEWMGWIDTETGDPTYADDFKGRFVFSLDTSVSTAYLQISSLKAEDTAVYYCARTNYYYRNYMFYFDYWGQGTMVTVSSGGGGSGGGGSEVQLVQSGAEVKKPGSSVKVSCKASGYTFTESYMYWVKQAPGQGLELIGRIDPEDGSTDYVEKFKNKATLTADKSTSTAYMELSSLRSEDTAVYFCARFGARSYFYPMDAWGQGTTVTVSSASTKGPSVFPLAPSSKSTSGGTAALGCLVKDYFPEPVTVSWNSGALTSGVHTFPAVLQSSGLYSLSSVVTVPSSSLGTQTYICNVNHKPSNTKVDKKVEPKSCDKTHTCPPCPAPEAAGGPSVFLFPPKPKDTLMISRTPEVTCVVVDVSHEDPEVKFNWYVDGVEVHNAKTKPREEQYNSTYRVVSVLTVLHQDWLNGKEYKCKVSNKALPAPIEKTISKAKGQPREPQVYTLPPSREEMTKNQVSLTCLVKGFYPSDIAVEWESNGQPENNYKTTPPVLDSDGSFFLYSKLTVDKSRWQQGNVFSCSVMHEALHNAYTQKSLSLSPGK
# light: EIVLTQSPATLSLSPGERATLFCRASQSVSNHMHWYQQKPGQAPRLLIYGASILESGVPARFSGSGSGTDFTLTISSLEPEDFAVYYCQQSWYDPITFGQGTKLEIKGGSGGGGSGGETVLTQSPATLSLSPGERATLSCRASESVSTLMHWYQQKPGQQPRLLIYGASNLESGVPARFSGSGSGTDFTLTISSLEPEDFAVYFCQQSWNDPWTFGGGTKVEIKRTVAAPSVFIFPPSDEQLKSGTASVVCLLNNFYPREAKVQWKVDNALQSGNSQESVTEQDSKDSTYSLSSTLTLSKADYEKHKVYACEVTHQGLSSPVTKSFNRGEC
# B3: CL-33675_GS_CL-34565 (PR-1613186) (bispecific antibody, human IgG1, kappa, L234A L235A)
# heavy: EVTLRESGPALVKPTQTLTLTCTFSGFSLSTYGMGVGWIRQPPGKALEWLANIWWDDDKYYNPSLKNRLTISKDTSKNQVVLTMTNMDPVDTATYYCARIESSGPKYSFDYWGQGTMVTVSSGGGGSGGGGSEVQLVQSGSELKKPGASVKVSCKASGYTFTDYGMYWVRQAPGQGLEWMGWIDTETGDPTYADDFKGRFVFSLDTSVSTAYLQISSLKAEDTAVYYCARTNYYYRNYMFYFDYWGQGTMVTVSSASTKGPSVFPLAPSSKSTSGGTAALGCLVKDYFPEPVTVSWNSGALTSGVHTFPAVLQSSGLYSLSSVVTVPSSSLGTQTYICNVNHKPSNTKVDKKVEPKSCDKTHTCPPCPAPEAAGGPSVFLFPPKPKDTLMISRTPEVTCVVVDVSHEDPEVKFNWYVDGVEVHNAKTKPREEQYNSTYRVVSVLTVLHQDWLNGKEYKCKVSNKALPAPIEKTISKAKGQPREPQVYTLPPSREEMTKNQVSLTCLVKGFYPSDIAVEWESNGQPENNYKTTPPVLDSDGSFFLYSKLTVDKSRWQQGNVFSCSVMHEALHNAYTQKSLSLSPGK
# light: EIVLTQSPGTLSLSPGERATLSCRASSGSIWYSFVSWYQQKPGQAPRLLIYADDQRASGIPDRFSGSGSGTDFTLTISRLEPEDFAVYYCQSYGINIDVVFGGGTKVEIKGGSGGGGSGGEIVLTQSPATLSLSPGERATLFCRASQSVSNHMHWYQQKPGQAPRLLIYGASILESGVPARFSGSGSGTDFTLTISSLEPEDFAVYYCQQSWYDPITFGQGTKLEIKRTVAAPSVFIFPPSDEQLKSGTASVVCLLNNFYPREAKVQWKVDNALQSGNSQESVTEQDSKDSTYSLSSTLTLSKADYEKHKVYACEVTHQGLSSPVTKSFNRGEC
# B4: 9E8.4_GS_CL-34565 (PR-1613187) (bispecific antibody, human IgG1, kappa, L234A L235A)
# heavy: B3 heavy with S103I, P105T, K106T
# light: EFVLTQSPGTLSLSPGERATLSCERSSGDIGDSYVSWYQQKPGQAPRLVIYADDQRPSGIPDRFSGSGSGTDFTLTISRLEPEDFAVYYCQSYDINIDIVFGGGTKVEIKGGSGGGGSGGEIVLTQSPATLSLSPGERATLFCRASQSVSNHMHWYQQKPGQAPRLLIYGASILESGVPARFSGSGSGTDFTLTISSLEPEDFAVYYCQQSWYDPITFGQGTKLEIKRTVAAPSVFIFPPSDEQLKSGTASVVCLLNNFYPREAKVQWKVDNALQSGNSQESVTEQDSKDSTYSLSSTLTLSKADYEKHKVYACEVTHQGLSSPVTKSFNRGEC
# B5: 9E8.4_GS_4G8.5 (PR-1613188) (bispecific antibody, human IgG1, kappa, L234A L235A)
# heavy: EVTLRESGPALVKPTQTLTLTCTFSGFSLSTYGMGVGWIRQPPGKALEWLANIWWDDDKYYNPSLKNRLTISKDTSKNQVVLTMTNMDPVDTATYYCARIESIGTTYSFDYWGQGTMVTVSSGGGGSGGGGSEIQLVQSGSELKKPGASVKVSCKASGYTFTNYGMYWVRQAPGQGLEYMGWINTETGKPTYADDFKGRFVFSLDTSVSTAYLQISSLKAEDTAVYFCARTNYYYRSYIFYFDYWGQGTMVTVSSASTKGPSVFPLAPSSKSTSGGTAALGCLVKDYFPEPVTVSWNSGALTSGVHTFPAVLQSSGLYSLSSVVTVPSSSLGTQTYICNVNHKPSNTKVDKKVEPKSCDKTHTCPPCPAPEAAGGPSVFLFPPKPKDTLMISRTPEVTCVVVDVSHEDPEVKFNWYVDGVEVHNAKTKPREEQYNSTYRVVSVLTVLHQDWLNGKEYKCKVSNKALPAPIEKTISKAKGQPREPQVYTLPPSREEMTKNQVSLTCLVKGFYPSDIAVEWESNGQPENNYKTTPPVLDSDGSFFLYSKLTVDKSRWQQGNVFSCSVMHEALHNAYTQKSLSLSPGK
# light: EFVLTQSPGTLSLSPGERATLSCERSSGDIGDSYVSWYQQKPGQAPRLVIYADDQRPSGIPDRFSGSGSGTDFTLTISRLEPEDFAVYYCQSYDINIDIVFGGGTKVEIKGGSGGGGSGGATQLTQSPSLSASVGDRVTITCRASESVSTHMHWYQQKPGKQPKLLIYGASNLESGVPSRFSGSGSGTDFTLTISSLQPEDFATYFCQQSWNDPFTFGQGTKLEIKRTVAAPSVFIFPPSDEQLKSGTASVVCLLNNFYPREAKVQWKVDNALQSGNSQESVTEQDSKDSTYSLSSTLTLSKADYEKHKVYACEVTHQGLSSPVTKSFNRGEC
# Target: recombinant human VEGF165 (human, UniProt P15692 207-395)
# Experiment: cell-based or functional assay
# Chain of recombinant human VEGF165 (P15692 other isoform, or with tags, fused parts or gaps limits assumed): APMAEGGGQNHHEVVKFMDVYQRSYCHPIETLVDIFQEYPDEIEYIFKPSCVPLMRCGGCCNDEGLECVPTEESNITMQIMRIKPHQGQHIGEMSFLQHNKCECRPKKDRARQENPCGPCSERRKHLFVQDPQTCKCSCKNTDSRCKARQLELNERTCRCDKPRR
row,Binder,"Potency IC50 (nM), HMVEC-d hVEGF165 (proliferation)"
1,B1,0.065 nM
2,B2,0.053 nM
3,B3,0.05 nM
4,B4,0.058 nM
5,B5,0.354 nM

# Target: recombinant human PDGF-BB (human, UniProt P01127 82-190)
# Experiment: cell-based or functional assay
# Chain of recombinant human PDGF-BB (P01127 82-190 limits assumed): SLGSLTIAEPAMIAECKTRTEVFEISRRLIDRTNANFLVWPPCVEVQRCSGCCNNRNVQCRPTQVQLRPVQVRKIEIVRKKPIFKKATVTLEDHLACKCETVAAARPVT
row,Binder,"Potency IC50 (nM), NIH-3T3 hPDGF-BB (proliferation)"
1,B1,0.323 nM
2,B2,6 nM
3,B3,0.043 nM
4,B4,0.134 nM
5,B5,0.108 nM
